The source of these data is article doi:10.1101/2020.03.14.988758 (bioRxiv, 2020).

Broadly, the Kd is the concentration at which binding is half-saturated. Lower therefore signals tighter binding.

This assay has as its target ectodomain construct of MuSK (ectoMuSK) (aa1-472) (Homo sapiens (assumed), UniProt O15146, biotin on the Avitag (site-specific, BirA)). As to the kind of experiment: BLI. (BLI is a label-free optical method that tracks binding on a fibre tip over time.)

Sequence of ectodomain construct of MuSK (ectoMuSK) (aa1-472) (O15146 24-472): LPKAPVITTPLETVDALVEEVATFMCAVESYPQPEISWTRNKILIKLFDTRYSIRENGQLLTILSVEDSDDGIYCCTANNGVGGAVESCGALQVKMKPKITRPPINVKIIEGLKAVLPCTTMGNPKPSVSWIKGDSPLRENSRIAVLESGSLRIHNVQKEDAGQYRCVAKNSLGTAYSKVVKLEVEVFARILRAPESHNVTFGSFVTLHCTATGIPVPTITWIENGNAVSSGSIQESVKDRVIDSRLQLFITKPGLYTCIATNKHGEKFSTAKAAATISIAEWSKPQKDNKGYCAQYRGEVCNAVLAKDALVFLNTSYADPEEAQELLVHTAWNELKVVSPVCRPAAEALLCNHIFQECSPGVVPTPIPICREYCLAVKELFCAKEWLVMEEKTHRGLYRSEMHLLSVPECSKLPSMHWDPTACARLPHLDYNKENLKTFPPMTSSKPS

B1: Fab MuSK1B (mature) (Fab, V domains shown)
VH: EVQLVEWGAGLLKPSETLSLTCAVYGGSFSGDYWWTWIRQPPGKGLEWIGEIDHTGNTNYNPSLKSRLTLSVDMSKNHFSLKLTSVTAADTALYFCARQEGLGYYDSWGQGTLVTVSS
VL: SYELTQSPSVSVSPGQTANITCSGDKLGDRYASWYQQKPAQSPVLVIYQDDRRPSGIPERFSGSNSGNTATLTISGTQGMDEADYYCQAWDGTTVFGGGTKLTVL
As for B1, binding was characterised by a dissociation constant (Kd) of 440 pM.

B2: Fab MuSK1A (mature) (Fab, V domains shown)
VH: QVQLVQSGAEVKKPGASVKVSCKTSGYTFNNYDINWVRQAAGQGLEWMGWMNPYSGNTGYAQKFQGRVTMTRNISITTVYMELSSLRSEDTAVYYCAREVRGDTGYGGGSDYWGQGTLVTVSS
VL: SYELTQPPSVSLSPGQTATITCSGDKLDDNYVCWYQQKPGQSPVLVIYQDTMRPSGIPERFSGSNSGNIATLTISGTQAVDEADYYCQAWDGSTVVFGGGTRLTVL
For B2, the Kd was determined as 410 pM.
